Values of other authors, collected in article PMC7723891.

Target: Spike RBD (SARS-CoV-2) (UniProt P0DTC2)
Test: Biacore

CD147 (from UniProt P35613)
Kd: 185 nM
